Entries after “also recorded” stand apart in the source; their conditions may differ.
Key:
actin [1] = biological target: T1, actin (Oryctolagus cuniculus, UniProt P68135); experiment: Actin binding solid phase assay; conditions: immobilized actin; 0-500 ng/100 μl well
Method: 96-well plates (MaxiSorp® flat-bottom 96-well plate, Fisher Scientific Inc., Fair Lawn, N.J.) were coated with 500 ng actin in 100 μl carbonate-bicarbonate buffer (pH 9.5) for 1 h at 37° C. The plate was washed once with TBS and then blocked with 3% BSA in 200 μl TBS buffer at 37° C., for 1 h. Wells were then washed once with 250 μl TBS. trT2-49, trT2-49m or each of the 29 peptides were added at 1:2 dilutions in 100 μl TBS, starting from 500 ng/well, incubated for 1 h at 37° C. and then washed three times with TBS containing 0.1% Tween-20 (TBST). Each well was then treated with 100 μl rabbit anti-trT2-49 diluted 1:500 in TBS and incubated for 1 h at 37° C. The wells were washed three times with TBST and then incubated with 100 μl goat anti-rabbit IgG-HRP (Jackson ImmunoResearch, West Grove, Pa.) diluted 1:10,000 in TBS, for 1 h at 37° C. Wells were then washed twice with TBST, and once with TBS before 100 μl substrate (1-step Ultra TMB-ELISA, Pierce, Fisher Scientific Inc.) were added. Absorbance at 655 nm was measured 10 min thereafter using a Power Wave 200 Microplate Scanning Spectrophotometer (Bio-Tek Instrument, Winooski, Vt.). Affinity was evaluated by double reciprocal plotting.

HUVEC = HUVEC tube formation assay on Matrigel; format: cell-based, human; conditions: peptides at 2 μM, compared to Control
Method: FIGS. 6A-6D illustrate in-vitro inhibition of angiogenesis in the HUVEC model by T2 peptides. HUVEC cells plated on Matrigel™ were exposed to 2 μM of T2 peptides A103-Q159 (SEQ ID NO: 60), K108-K133 (SEQ ID NO: 57) or K108-L123 (SEQ ID NO: 67), in addition to 1 μg/ml of angiogenin or VEGF as the angiogenic agent, as indicated. Control wells received PBS. FIG. 6B-Results were assessed by imaging software, and quantified, and expressed relative to tube formation with angiogenin or VEGF alone (100%) Column 1=angiogenin, column 2=angiogenin+SEQ ID NO: 60, column 3=angiogenin+SEQ ID NO: 57, column 4=angiogenin+SEQ ID NO: 60, Column 5=VEGF, column 6=VEGF+SEQ ID NO: 60, column 7=VEGF+SEQ ID NO: 57, column 8=VEGF+SEQ ID NO: 60. FIGS. 6C and 6D illustrate the inhibitory effect of truncated human T2 polypeptide trT2-49m (SEQ ID NO: 129) on angiogenin and VEGF induced HUVEC tube formation. […]
HUVEC (CC-2519)(fresh or commercially provided) are maintained in M199 rrrediurn supplemented with 20% FCS, 1% glutamine, 1% antibiotic-antimycotic solution, ECGF, and heparin, plated in a 96-well plate (14×10^3 cells/well) previously coated with growth factor-depleted Matrigel™ (BD Biosciences), in M199 medium containing 5% FCS and 0.005% ECGF. […] Plates are incubated (overnight), photographed and the extent of tube formation (angiogenesis) assessed.

actin [2] = biological target: T1, actin; experiment: Surface plasmon resonance (BIAcore) of actin binding; conditions: actin on CM5 chip, 25° C.
Method: SPR was performed on a BIAcore 3000 instrument (BIAcore, Uppsala, Sweden). Actin was diluted in 100 mM CH3COONa pH 4.6 to a final concentration of 20 μg/ml (200 μl total) resulting in ˜1 ng immobilized actin on a CM5 BIAcore sensor chip (GE Healthcare Bio-Sciences AB) using the standard BIAcore amine coupling chemistry protocol. The CM5 chip allows four separate flow cells to be operated in the BIAcore 3000 instrument used in these experiments. Coupling is achieved by activating the surface of the sensor chips with equal volumes of 50 mM N-hydroxysuccimide (NHS)/200 mM Nethyl-N-(3-[…])-carboiimide (EDC) (BIAcore, AB, Uppsala, Sweden) to form activated carboxyl groups. An actin solution (15 μg/ml) was run over the chip for 5 min at a rate of 10 μl/min, allowing the amine groups on the protein to react with the activated esters. In the final stage of immobilization, the surface was blocked by 1M ethanol amine, pH 8.0. […] The association phase for protein or peptides binding to actin was followed for 4 min, and dissociation phases were monitored for 3 min. […] The response was monitored as a function of time (sensorgram) at 25° C. […]

[3] = system: chick Chorio-Allantoic Membrane (CAM); experiment: Ex ovo CAM angiogenesis assay; format: in vivo, chicken; conditions: 3 μg on paper disk daily for four days from day 8; compared to PBS control
Method: In this assay, in-vivo angiogenesis is assessed on live chick embryos grown in petri dishes. Fertilized eggs are cracked into a petri dish after a few (e.g. 3) days incubation at appropriate temperature (e.g. 37° C.) and humidity. In the following days, the embryos developed a vascular network, which can then easily be exposed to any treatment or combination of treatments, for example, via delivery onto absorbent disks placed on/about the developing vascular regions. Angiogenesis is scored by periodically (e.g. 1×/day, 2×/day, 1×/2 days, 1×/4 days, etc) counting the number of blood vessels around the disk.
Fertilized chicken eggs were incubated horizontally at 37° C. and humidity of 60-62% and cracked into Petri dishes at embryonic day 4. Incubation was continued under the same conditions. […] Treatment was given every day for four days, then, the number of blood vessels around the treated disks was counted.

[4] = biological target: T2, G-Actin from rabbit muscle (Oryctolagus cuniculus, UniProt P68135); experiment: ELISA actin binding assay (solid-phase, immobilized actin); conditions: immobilized G-actin 500 ng/well
T2 construct: G-Actin from rabbit muscle; purchased Sigma-Aldrich, St Louis, Mo; host or cells: rabbit muscle (tissue-derived)
Method: Peptides corresponding to a variety of amino acid sequences in the region of human RNASET2 comprising helix 5 and helix 6 were synthesized and assayed for actin binding in an ELISA actin binding assay.
Solid-phase ELISA for RNASET2 peptide binding to immobilized actin was performed as modified from Mejean 1987 (Biochem. J. 244: 571-577) and Mejean 1992 (Eur. J Biochem. 209: 555-562). All steps were conducted at 37° C. Immuno-96 Microwell™ solid plates (Thermo Fisher Scientific, MA) coated with 500 ng/well of G-Actin from rabbit muscle (Sigma-Aldrich, St Louis, Mo.) in 100 ul of 0.05 M carbonate buffer, pH 9.5 (Sigma-Aldrich, Mo), incubated for 1 h and washed with 250 ul/well Tris Buffered Saline (TBS) (Sigma-Aldrich). The wells were blocked with 3% bovine serum albumin (BSA, Sigma-Aldrich) in 200 ul/well TBS for another 1 hour and washed with 250 ul/well TBS. […] After an additional wash with 250 ul/well TBS, 1-Step Ultra TMB-ELISA (TMB-3,3′,5,5′ Tetramethylbenzidine) (Thermo-Scientific) was added (100 ul/well) and after 15-25 min of incubation, the reaction was read at A650 using Infinite F50-TECAN ELISA READER (TECAN, Austria). […]

| Ka × 10^3 (actin [2]) | actin binding on ELISA [4] | Molecule | actin binding in solid-phase assay (actin [1]) | inhibition of VEGF-induced tube formation (HUVEC; 1 μg/ml VEGF) | inhibition of angiogenin-induced tube formation (HUVEC; 1 μg/ml angiogenin) | inhibition of angiogenesis (number of blood vessels around disk) [3] |
| --- | --- | --- | --- | --- | --- | --- |
| 0.50 ×10^3 1/Ms |  | SEQ ID NO: 129: truncated version of hRNASET2 (trT2-49) missing amino acids E120-V141, expressed in E. coli (protein) EGCNRSWPFNLEEIKDLLPEMRAYWPDVIHSFPNRSRFWKHEWEKHGTCAAQVDALNSQKKYFGRSLELYRADFKDALARVYGVIPKIQCLPPSQDEEVQTIGQIELCLTKQDQQLQNCTEPGEQPSPKQEVWLANGAAESRGLRVCEDGPVFYPPPKKTKH | bound actin in a concentration-dependent manner; also recorded: effective and concentration-dependent binding of actin | 35% | 40% |  |
| 1.71 ×10^3 1/Ms | effectively binds actin | SEQ ID NO: 84: truncated RNASET2 polypeptide representing amino acids 49-232 of full length, native RNASET2 (protein) EGCNRSWPFNLEEIKDLLPEMRAYWPDVIHSFPNRSRFWKHEWEKHGTCAAQVDALNSQKKYFGRSLELYRELDLNSVLLKLGIKPSINYYQVADFKDALARVYGVIPKIQCLPPSQDEEVQTIGQIELCLTKQDQQLQNCTEPGEQPSPKQEVWLANGAAESRGLRVCEDGPVFYPPPKKTKH | effective and concentration-dependent binding of actin |  |  | effective in inhibiting angiogenesis |
